# Measured values as given in the supplement of paper PMC10567573.
# B1: TRIM39 (parent)
# chain: ERDFPCPVCRKTSRYRSLRPNRQL
# Variants of: B1
# Assay: protein stability index of a GFP-peptide fusion (GPS, HEK-293T) (PSI 1-6); higher = more stable
# Conditions: c terminus: a fixed tail appended
# 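Further: lentivirally expressed fusions sorted by FACS into six bins by GFP to DsRed ratio, PSI derived from sequencing read proportions per bin multiplied by bin number.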
row,Variant,protein stability index
1,R19D,1.54
2,R19G,1.89
3,R19A,1.63
4,R19E,1.59
5,Y15K,3.33
6,Y15D,3.02
7,Y15F,2.31
8,Y15Q,2.52
9,Y15V,1.64
10,Y15W,1.95
11,Y15H,2.68
12,Y15T,1.9
13,Y15R,2.65
14,Y15E,2.19
15,Y15I,2.24
16,Y15C,2.24
17,Y15G,1.83
18,Y15P,2.29
19,Y15M,1.54
20,Y15N,2.31
21,R16E,2.54
22,R16S,2.86
23,R16H,2.29
24,R16Y,1.74

row,Variant,protein stability index
1,R16V,2.04
2,R16F,2.57
3,R16P,2.1
4,R16M,1.03
5,R16N,2.23
6,R16L,1.53
7,R16A,1.43
8,R16G,1.29
9,R16K,2.14
10,R16Q,1.91
11,R16I,1.24
12,R16C,2.47
13,S13K,1.77
14,S13E,2.21
15,S13A,2.01
16,S13W,2.39
17,S13H,2.82
18,S13C,2.82
19,S13N,2.12
20,S13Q,2.1
21,S13I,2.4
22,S13P,2.74
23,S13V,2.1
24,S13D,2.56

row,Variant,protein stability index
1,S13F,2.46
2,S13R,2.49
3,S13L,2.4
4,S13G,2.52
5,S13M,2.61
6,L18T,3.13
7,L18M,1.82
8,L18I,1.81
9,L18C,2.24
10,L18F,2.39
11,L18D,2.71
12,L18H,2.68
13,L18E,2.1
14,L18A,2.32
15,L18W,2.26
16,L18S,2.42
17,L18Y,1.96
18,L18V,2.49
19,L18Q,2.39
20,L18N,2.41
21,L18G,2.34
22,L18R,2.87
23,L18P,2.89
24,K11R,1.85

row,Variant,protein stability index
1,K11G,1.75
2,K11Q,2.4
3,K11M,1.65
4,K11D,1.7
5,K11P,2.54
6,K11C,2.55
7,K11Y,1.8
8,K11F,1.88
9,K11E,1.17
10,K11I,1.21
11,K11H,3.77
12,K11S,2.25
13,K11N,3.36
14,K11V,1.63
15,K11W,2.84
16,K11A,2.45
17,T12D,1.37
18,T12I,1.71
19,T12K,2.64
20,T12G,2.05
21,T12L,2.13
22,T12P,1.55
23,T12W,2.44
24,T12S,2.17

row,Variant,protein stability index
1,T12H,1.55
2,T12V,2.02
3,T12Q,1.6
4,T12M,2.36
5,T12C,2
6,T12F,2.88
7,T12Y,1.7
8,T12A,2.64
9,R10H,2.53
10,R10Q,2.08
11,R10F,1.74
12,R10I,2.6
13,R10V,2.04
14,R10G,4.1
15,R10T,2.16
16,R10L,2.45
17,R10A,1.88
18,R10D,2.89
19,R10S,1.15
20,R10P,3.13
21,R10Y,2.03
22,R10N,2.22
23,R10K,2.14
24,R10E,1.91

row,Variant,protein stability index
1,R10M,2.88
2,R10C,3.16
3,C9G,3.91
4,C9V,3.26
5,C9Y,3.62
6,C9N,2.78
7,C9P,2.92
8,C9S,3.77
9,C9M,3.41
10,C9I,3.29
11,C9K,3.42
12,C9Q,3.81
13,C9T,3.77
14,C9H,2.56
15,R14D,2.08
16,R14F,1.96
17,R14H,2.15
18,R14M,1.92
19,R14Q,2
20,R14N,1.67
21,R14E,3.71
22,R14P,1.82
23,R14L,2.09
24,R14K,1.9

row,Variant,protein stability index
1,R14T,1.58
2,R14V,1.39
3,R14S,1.66
4,R14C,2.85
5,R14G,2.13
6,R14Y,2.42
7,R14I,2.28
8,R14A,2.46
9,S17V,2.24
10,S17H,1.89
11,S17Q,1.86
12,S17D,1.85
13,S17E,2.13
14,S17L,1.69
15,S17Y,1.44
16,S17W,2.31
17,S17N,2.22
18,S17T,1.45
19,S17R,2.31
20,S17K,2.25
21,S17G,2.15
22,S17C,1.71
23,S17P,2.71
